Common to all, as to experiment: cell-based or functional assay
The target of experiment [1] is interleukin (IL)-6 (human) (UniProt P05231).
Experiment [2] has as its target interleukin (IL)-8 (human) (UniProt P10145).
For experiment [3], the target named is monocyte chemoattractant protein-1 (human) (UniProt P13500).
For experiment [4], the target named is tissue inhibitor of metalloproteinases-1 (human) (UniProt P01033).
Chain of tissue inhibitor of metalloproteinases-1 (human) (P01033 24-207 limits assumed): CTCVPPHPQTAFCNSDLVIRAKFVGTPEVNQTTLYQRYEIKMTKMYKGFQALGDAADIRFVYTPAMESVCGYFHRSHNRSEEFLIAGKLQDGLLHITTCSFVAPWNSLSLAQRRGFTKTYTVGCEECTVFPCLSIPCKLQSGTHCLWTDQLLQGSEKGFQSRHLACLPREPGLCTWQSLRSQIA

Chain of interleukin (IL)-6 (human) (P05231 30-212 limits assumed): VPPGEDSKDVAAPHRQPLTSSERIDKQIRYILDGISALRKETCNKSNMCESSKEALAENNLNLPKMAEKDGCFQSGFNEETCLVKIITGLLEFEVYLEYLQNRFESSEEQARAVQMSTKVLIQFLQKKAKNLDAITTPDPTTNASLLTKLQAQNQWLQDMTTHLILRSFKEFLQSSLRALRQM
Chain of monocyte chemoattractant protein-1 (human) (P13500 24-99 limits assumed): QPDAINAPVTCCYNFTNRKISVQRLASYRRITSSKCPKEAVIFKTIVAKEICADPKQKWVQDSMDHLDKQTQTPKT
Chain of interleukin (IL)-8 (human) (P10145 28-99 limits assumed): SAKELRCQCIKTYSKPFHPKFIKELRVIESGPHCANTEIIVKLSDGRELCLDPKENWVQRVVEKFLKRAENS

With “IL-6 inhibitory antibody (R&D Systems AB206NA)”, the decrease in in vitro ovarian cancer cell homing toward adipocytes (Matrigel plug, fluorescence) in experiment [1] is over 50%.

In experiment [2], “IL-8 inhibitory antibody (R&D Systems AB208NA)” displayed a decrease in in vitro ovarian cancer cell homing toward adipocytes (Matrigel plug, fluorescence) of over 50%.

“MCP-1 inhibitory antibody (R&D Systems AB279NA)” gave a decrease in in vitro ovarian cancer cell homing toward adipocytes (Matrigel plug, fluorescence) in experiment [3] of over 50%.

Take “TIMP-1-specific inhibitory antibody (R&D Systems AF970)”: the decrease in in vitro ovarian cancer cell homing toward adipocytes (Matrigel plug, fluorescence) in experiment [4] was over 50%.

The values are drawn from patent US20140363522A1.
